In one series the target is T1, EilR-Y03A/R32A (UniProt A0A346M331 1-192, Y3A;R32A).
T1 sequence: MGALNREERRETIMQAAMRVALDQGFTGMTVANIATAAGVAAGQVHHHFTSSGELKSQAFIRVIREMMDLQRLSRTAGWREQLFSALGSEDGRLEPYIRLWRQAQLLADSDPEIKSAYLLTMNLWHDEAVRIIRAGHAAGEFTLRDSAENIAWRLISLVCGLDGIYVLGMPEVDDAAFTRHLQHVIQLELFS
Put plainly: EMSA; up to 8:1 protein:DNA; 10 mM MgCl2; Operator EMSA: 30 mM Tris pH 7.7, 100 mM NaCl, 25 mM arginine, 25 mM glutamine, 5 mM MgCl2, RT 1.5 h; mutant EMSA: 50 mM Tris pH 8.0, 150 mM NaCl, 50 mM arginine, 50 mM glutamine, 10 mM MgCl2, 0.5 mM DTT, RT 30 min; 2% agarose TBE gels. The note with it: protein: recombinant; chain copies: 2. On the technique in general: A gel shift assay detects complexes by their altered migration in electrophoresis.

A further series has as its target T2, EilR-H47A (UniProt A0A346M331 1-192, H47A).
T2 sequence: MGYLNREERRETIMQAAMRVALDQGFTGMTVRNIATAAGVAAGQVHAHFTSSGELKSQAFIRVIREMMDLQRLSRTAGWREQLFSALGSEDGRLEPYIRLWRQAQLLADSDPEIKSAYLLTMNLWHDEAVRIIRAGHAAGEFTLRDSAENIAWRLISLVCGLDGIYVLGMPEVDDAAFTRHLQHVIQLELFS
The series is described as above. The settings on record: protein: recombinant; chain copies: 2.

Another series deals with T3, EilR-R32A (UniProt A0A346M331 1-192, R32A).
T3 sequence: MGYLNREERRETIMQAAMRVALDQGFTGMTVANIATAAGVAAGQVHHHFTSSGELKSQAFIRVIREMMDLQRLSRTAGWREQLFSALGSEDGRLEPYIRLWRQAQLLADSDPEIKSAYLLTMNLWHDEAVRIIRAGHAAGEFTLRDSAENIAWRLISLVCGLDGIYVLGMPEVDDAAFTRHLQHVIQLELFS
The series is described as above. The settings on record: protein: recombinant; chain copies: 2.

For series [1], the target named is T4, EilR (UniProt A0A346M331 1-192).
T4 sequence: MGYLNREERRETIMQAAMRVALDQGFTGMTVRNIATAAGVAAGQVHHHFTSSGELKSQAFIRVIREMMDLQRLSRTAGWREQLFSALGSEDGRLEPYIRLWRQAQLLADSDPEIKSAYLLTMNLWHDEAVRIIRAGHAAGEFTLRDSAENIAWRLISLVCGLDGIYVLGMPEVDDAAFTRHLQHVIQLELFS
Description: EMSA; complex appears from 0.125:1 EilR:DNA; 10 mM MgCl2; Operator EMSA: 30 mM Tris pH 7.7, 100 mM NaCl, 25 mM arginine, 25 mM glutamine, 5 mM MgCl2, RT 1.5 h; mutant EMSA: 50 mM Tris pH 8.0, 150 mM NaCl, 50 mM arginine, 50 mM glutamine, 10 mM MgCl2, 0.5 mM DTT, RT 30 min; 2% agarose TBE gels. The settings on record: protein: recombinant; tags: His8 removed with TEV protease; chain copies: 2.

The target in series [2] is T4, EilR. Description: EMSA; lower affinity than eilOc; 5 mM MgCl2; Operator EMSA: 30 mM Tris pH 7.7, 100 mM NaCl, 25 mM arginine, 25 mM glutamine, 5 mM MgCl2, RT 1.5 h; mutant EMSA: 50 mM Tris pH 8.0, 150 mM NaCl, 50 mM arginine, 50 mM glutamine, 10 mM MgCl2, 0.5 mM DTT, RT 30 min; 2% agarose TBE gels. The note with it: protein: recombinant; tags: His8 removed with TEV protease; chain copies: 2.

B1: eilOc 28-mer duplex (dsDNA)
DNA 1: AAAAAGTTGGACACGTGTCCAACTTTCC
DNA 2: GGAAAGTTGGACACGTGTCCAACTTTTT
Regarding B1, the binding result with EilR-Y03A/R32A was “no binding”; in the series with EilR-H47A, “no binding”; with EilR-R32A, “no binding”; in the series with EilR [1], “binds”.

B2: eilO2 (dsDNA)
DNA 1: CGCAAACTGGACGGATGTCCAGCTTTGT
DNA 2: ACAAAGCTGGACATCCGTCCAGTTTGCG
As for B2, in the series with EilR [2], the binding result is on record as “binds”.

For the origin of these results see PMC6127294, “Jungle Express is a versatile repressor system for tight transcriptional control” (Nature Communications, 2018).
